The record followed here is US20100210511A1, “Combination VEGFR2 Therapy with Temozolomide” (Bristol-Myers Squibb Company, priority 2009, published 2010).

The subject of assay [1] is U87vIIILuc Glioblastoma Cells. Kind of assay: Survival of NOD-SCID mice intracranially implanted with U87vIIILuc glioblastoma cells (Example 2). The format is in vivo. The note with it: intracranial U87vIIILuc; Compound 1 60 mg/kg IP three times per week; TMZ 34 mg/kg orally once daily for five days; 6 mice per group. From the text:
(§1) Tumor Implantation. 9 week-old male NOD-SCID mice (Charles River Laboratories, Wilmington, Mass., USA) were anesthetized by 2% isoflurane. 5×10^4 U87vIIIluc tumor cells were implanted intracranially using the following stereotactic coordinates: 0.5 mm posterior, 2.5 mm lateral, and 3.5 mm intraparenchymal Animal care was kept in strict accordance with the institutional animal care and use committee of Massachusetts General Hospital.
(§2) Drug Administration. After randomization, 24 mice were divided into 4 groups (PBS, Compound 1 only, TMZ only, and Compound 1+TMZ) with 6 mice per group. PBS and Compound 1 (60 mg/kg) were delivered intraperitoneally in 200 ul IP volumes three times per week throughout the study until mice reached established criteria for euthanasia. Temozolomide (TMZ) was delivered orally (34 mg/kg) once daily for five days.
Results are shown in FIG. 1 (Compound 1=VEGFR2 specific inhibitor represented by SEQ ID NO: 4; Compound 2=TMZ; PBS=phosphate buffered saline (vehicle control)). The Y-axis indicates percent survival within each group over the length of the study Animals were followed for survival and sacrificed at the first sign of morbidity. Mean survival was 19, 29, 32 and 47 days for PBS, Compound 1, TMZ, and Compound 1+TMZ, respectively.

The test system of assay [2] is U87vIIILuc Glioblastoma Cells. The assay can be described thus: Bioluminescent imaging (BLI) of U87vIIILuc tumor growth (Example 2). As to conditions: Compound 1 60 mg/kg IP 3x/week, TMZ 34 mg/kg orally QD×5. Type of assay: in vivo, NOD-SCID mice.
Source text: as §1, §2
Scanning Mice were anesthetized using 1-2% isoflurane before intraperitoneal injection of D-luciferin salt (150 mg/kg in 200 ul PBS; Caliper Life Sciences, Hopkinton Mass.). Bioluminescent imaging (BLI) was performed in a high sensitivity, cooled CCD camera (IVIS®, Xenogen) at five-minute intervals until peak values were recorded for all mice. BLI imaging was performed on days 6, 13, 20 and 26.
Image Analysis. Living Image® software (Xenogen) was used for image capture and signal quantification. Imaging schedules are described in the treatment groups. […]

In assay [3] the test system is CD31 (endothelial blood vessel formation marker). Kind of assay: Immunohistochemical staining for CD31 on brain tissue sections (microvascular density). The format is in vivo, NOD-SCID mice. As to conditions: Day 14 IHC analysis; compared to TMZ or PBS groups. How it is done: IHC staining for CD31 was performed on paraffin-embedded mouse brain tissue sections using Rat on mouse HRP-Polymer® (Biocare Medical). Briefly, sections were deparaffinized, rehydrated and treated with peroxidase (PEROXIDAZED 1, Biocare Medical) for 5 min at room temperature. To expose antigens, sections were treated with trypsin (CAREZYME 1®, Biocare Medical) for 10 min at 37° C. Unspecific protein was blocked by using Rodent Block M® (Biocare Medical) for 30 min. Thereafter, sections were incubated with rat monoclonal anti-CD31 (1:50, Biocare Medical) antibody for 2 h at room temperature. Subsequently, sections were incubated with Rat Probe® (Biocare Medical) for 15 min at room temperature, followed by incubation with Rat-Polymer HRP® (Biocare Medical) for 20 min at room temperature.
To visualize antigens in the tissue, DAB chromogen substrate (Biocare Medical) were used for 5 min Finally, sections were lightly counter-stained with Mayer's hematoxylin. For a negative control, the incubation step with primary antibody was omitted.
Immunohistochemical staining against CD31 (endothelial blood vessel formation marker), Ki67 (cell proliferation marker) or cleaved-caspase 3 (cellular apoptosis marker) was performed on paraffin-embedded brain tissue sections. […]

For assay [4], the system named is U87vIIILuc Glioblastoma Cells. Kind of assay: Survival in U87vIIILuc glioma model, triple administration with radiation therapy (Example 3). The format is in vivo, NOD-SCID mice. As to conditions: radiation insensitive glioblastoma model; compared to RT alone or standard of care (TMZ+RT). How it is done: Tumor implantation was performed as described above in Example 2.
Drug Administration. After randomization, 32 mice were divided into 4 groups (PBS, Radiation Therapy (RT) only, Compound 2 & RT, and Compound 1+Compound 2 & RT) with 8 mice per group. PBS and Compound 1 (60 mg/kg) were delivered intraperitoneally in 200 ul IP volumes three times per week throughout the study until mice reached established criteria for euthanasia. Compound 2 (TMZ) was delivered orally (34 mg/kg) once daily for five days. Compound 2 and RT treatments were initiated after the third dose of Compound 1.
Radiation Therapy. Mice were shielded in a custom-designed block with an aperture of 0.8 cm. After anesthetic induction (ketamine 118 mg/kg i.p.+xylazine 11.8 mg/kg i.p.), mice were irradiated to a total dose of 10 Gy in three daily fractions. 10 Gy were experimentally determined to be the highest tolerable dose for this model.
Results are shown in FIG. 5 (Compound 1=VEGFR2 specific inhibitor represented by SEQ ID NO: 4; Compound 2=TMZ; RT=Radiation Therapy; PBS=phosphate buffered saline (vehicle control)). The Y-axis indicates percent survival within each group over the length of the study Animals were followed for survival and sacrificed at the first sign of morbidity. Mean survival was 22, 23, 33 and 47 days for PBS, Radiation Therapy, Compound 2 & RT, and Compound 1+Compound 2 & RT, respectively.

Take `Cn1nnc2c(C(N)=O)ncn2c1=O` [TMZ, temozolomide]: the Mean survival in assay [1] is 32 days. Moreover, the “Day 13 mean BLI values (photons/sec×10^6) increased by, fold” value in assay [2] was 6.17×10^1 fold.

B1: Compound 1: VEGFR2 specific inhibitor represented by SEQ ID NO: 4, 10Fn3-based, modified with a single branched 40 kDa PEG at the C-terminal cysteine (protein)
chain: GEVVAATPTSLLISWRHPHFPTRYYRITYGETGGNSPVQEFTVPLQPPTATISGLKPGVDYTITVYAVTDGRNGRLLSIPISINYRTEIDKPCQ
modifications: branched 40 kDa PEG at C-terminal cysteine
Consider B1, for which the “Blood vessel formation by CD31 staining” value in assay [3] is recorded as “strongly reduced blood vessel formation”. In addition, the “Survival benefit (in words)” value in assay [4] is listed as “can enhance survival”. This molecule also had a Mean survival in assay [1] of 29 days. Besides, in assay [2], the “Day 13 mean BLI values (photons/sec×10^6) increased by, fold” value was 1.79×10^2 fold.
